Reference: patent US20190119348A1, “PARATHYROID HORMONE RECEPTOR 1 ANTAGONIST AND INVERSE AGONIST POLYPEPTIDES AND METHODS OF THEIR USE” (The General Hospital Corporation, priority 2016, published 2019)

These substances were tested against human parathyroid hormone receptor 1 (hPTHR1) (human) (UniProt Q03431) (assay: cell-based or functional assay).
human parathyroid hormone receptor 1 (hPTHR1) (human), sequence (Q03431 27-593): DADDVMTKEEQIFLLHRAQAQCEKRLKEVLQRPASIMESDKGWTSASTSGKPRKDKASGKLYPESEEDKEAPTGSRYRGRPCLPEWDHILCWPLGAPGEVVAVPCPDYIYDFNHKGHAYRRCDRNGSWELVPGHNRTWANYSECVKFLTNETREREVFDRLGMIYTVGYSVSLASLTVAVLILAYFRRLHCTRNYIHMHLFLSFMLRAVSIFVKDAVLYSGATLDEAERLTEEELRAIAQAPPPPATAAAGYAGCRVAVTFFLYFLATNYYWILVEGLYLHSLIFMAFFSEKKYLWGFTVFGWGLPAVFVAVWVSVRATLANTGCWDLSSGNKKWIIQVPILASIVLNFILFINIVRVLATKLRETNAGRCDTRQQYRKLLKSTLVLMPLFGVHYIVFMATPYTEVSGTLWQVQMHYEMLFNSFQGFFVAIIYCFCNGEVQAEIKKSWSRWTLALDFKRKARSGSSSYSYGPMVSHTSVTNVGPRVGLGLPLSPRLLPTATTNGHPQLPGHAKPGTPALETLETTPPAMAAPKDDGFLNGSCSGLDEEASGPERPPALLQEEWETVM

Substance	IC50, antagonism of PTH(1-34) (0.3 nM)-induced cAMP response, SGS-72 cells [nM]	pIC50, antagonism of PTH(1-34) (0.3 nM)-induced cAMP response, SGS-72 cells	IC50 (nanomolar value of the pIC50), antagonism of PTH(1-34)-induced cAMP response, GP-2.3 cells [µM]	IC50 (nanomolar value of the pIC50), antagonism of PTH(1-34)-induced cAMP response, SGS-72 cells [µM]	IC50 (nanomolar value of the pIC50), antagonism of PTHrP(1-36)-induced cAMP response, SGS-72 cells [µM]	IC50, antagonism of PTHrP(1-36) (0.3 nM)-induced cAMP response, SGS-72 cells [nM]	pIC50, antagonism of PTH(1-34)-induced cAMP response (GloSensor), GP-2.3 cells	pIC50, antagonism of PTH(1-34)-induced cAMP response, SGS-72 cells	pIC50, antagonism of PTHrP(1-36) (0.3 nM)-induced cAMP response, SGS-72 cells	pIC50, antagonism of PTHrP(1-36)-induced cAMP response, SGS-72 cells
TMR-L11, dW12, W23-LA-PTH(7-36)-2002 (peptide)	1.49	8.83 -log M	–	–	–	–	–	–	–	–
PEG20-Nle8, TMR, dW12, W23, C37-LA-PTH(5-37)-1978 (peptide)	24.1	7.62 -log M	0.642	0.021	0.013	12.9	6.19 -log M	7.68 -log M	7.89 -log M	7.89 -log M
TMR-dW12, W23-LA-PTH(7-36)-1991 (peptide)	1.95	8.71 -log M	–	–	–	–	–	–	–	–
TMR-Nle8, L11, dW12, W23-LA-PTH(7-36)-1998 (peptide)	2.21	8.65 -log M	–	–	–	–	–	–	–	–
TMR-Nle8, dW12, W23-LA-PTH(7-36)-1993 (peptide)	3.34	8.48 -log M	–	–	–	–	–	–	–	–
TMR-L11, dW12, W23-LA-PTH(5-36)-2004 (peptide)	2.13	8.67 -log M	–	–	–	–	–	–	–	–
TMR-dW12, W23, C37-LA-PTH(5-37)-1976 (peptide)	18.5	7.73 -log M	1.96	–	–	–	5.71 -log M	–	–	–
Nle8, dW12, W23, Y36-LA-PTH(5-36)-1954 (peptide)	1.75	8.76 -log M	–	–	–	–	–	–	–	–
Nle8, TMR, dW12, C35-bPTH(7-35)-1977 (peptide)	–	–	2.8	–	–	–	5.55 -log M	–	–	–
Nle8, TMR, dW12, W23, C37-LA-PTH(5-37)-1975 (peptide)	20.3	7.69 -log M	3.61	0.012	0.01	9.71	5.44 -log M	7.91 -log M	8.01 -log M	8.01 -log M
TMR-Nle8, L11, dW12, W23-LA-PTH(5-36)-2000 (peptide)	3.02	8.52 -log M	–	–	–	–	–	–	–	–
Nle8, dW12, W23, C37-LA-PTH(5-37)-1974 (peptide)	4.39	8.36 -log M	0.224	–	–	–	6.65 -log M	–	–	–
TMR-dW12, W23-LA-PTH(5-36)-1953 (peptide)	3.23	8.49 -log M	0.16	–	–	–	6.8 -log M	–	–	–
